{"source": "paper doi:10.1101/2022.11.26.518022", "about": "(bioRxiv, 2022)", "key": {"Unr CSD78 (A756-K922)": {"molecular_target": "T1, Unr CSD78 (A756-K922) (Drosophila, UniProt B7Z0E2 756-922)", "T1 sequence (looked up)": "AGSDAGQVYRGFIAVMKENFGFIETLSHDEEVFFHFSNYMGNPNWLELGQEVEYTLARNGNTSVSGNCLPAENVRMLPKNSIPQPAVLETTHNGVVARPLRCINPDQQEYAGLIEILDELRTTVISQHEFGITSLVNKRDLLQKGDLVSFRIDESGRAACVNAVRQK", "test": "NMR titration"}, "Unr CSD789 (A756-D990)": {"molecular_target": "T2, Unr CSD789 (A756-D990) (Drosophila, UniProt B7Z0E2 756-990)", "T2 sequence (looked up)": "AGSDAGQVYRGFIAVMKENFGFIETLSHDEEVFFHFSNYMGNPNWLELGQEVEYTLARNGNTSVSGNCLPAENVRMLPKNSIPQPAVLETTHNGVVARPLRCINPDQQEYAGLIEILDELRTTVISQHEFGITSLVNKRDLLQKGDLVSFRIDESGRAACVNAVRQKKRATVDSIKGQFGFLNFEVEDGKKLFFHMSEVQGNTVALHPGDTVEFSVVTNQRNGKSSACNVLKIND", "test": "NMR titration"}}}
{"binder": "pAbp RRM3 (G176-A263) (domain or fragment) not shown", "values": [{"measurement": "binding result", "setting": "Unr CSD78 (A756-K922)", "value": "binds"}, {"measurement": "binding result", "setting": "Unr CSD789 (A756-D990)", "value": "binds"}]}
